The numbers were not newly measured in publication PMC11339341, which cites them from elsewhere.

By Kd is commonly meant the equilibrium constant for the complex coming apart.

Like-named read-outs stand apart in the source and are kept apart here.

Among the targets are IFNAR1 (Homo sapiens) (UniProt P17181); IL-2Rβ:γc (Homo sapiens) (UniProt P14784); IL-4Rα (Homo sapiens) (UniProt P24394).
Data set [1] has as its target IFNAR2 (Homo sapiens) (UniProt P48551).
The target is the same in data set [2]. This is another data set of the same source.
Data set [3] has as its target IL-2Rβ (Homo sapiens) (UniProt P14784).
Data set [4] has the same target. The source holds these as a separate data set.
The target is the same in data set [5]. This is another data set of the same source.
The target is the same in data set [6]. This is another data set of the same source.

UniProt P48551, sequence (P48551 27-243): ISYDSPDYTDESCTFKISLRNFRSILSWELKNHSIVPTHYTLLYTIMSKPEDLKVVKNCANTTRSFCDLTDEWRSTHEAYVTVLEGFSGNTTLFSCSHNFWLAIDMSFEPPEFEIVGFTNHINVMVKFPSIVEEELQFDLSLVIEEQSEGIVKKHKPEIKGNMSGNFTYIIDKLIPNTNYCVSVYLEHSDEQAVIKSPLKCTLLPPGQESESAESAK
UniProt P17181, sequence (P17181 28-436): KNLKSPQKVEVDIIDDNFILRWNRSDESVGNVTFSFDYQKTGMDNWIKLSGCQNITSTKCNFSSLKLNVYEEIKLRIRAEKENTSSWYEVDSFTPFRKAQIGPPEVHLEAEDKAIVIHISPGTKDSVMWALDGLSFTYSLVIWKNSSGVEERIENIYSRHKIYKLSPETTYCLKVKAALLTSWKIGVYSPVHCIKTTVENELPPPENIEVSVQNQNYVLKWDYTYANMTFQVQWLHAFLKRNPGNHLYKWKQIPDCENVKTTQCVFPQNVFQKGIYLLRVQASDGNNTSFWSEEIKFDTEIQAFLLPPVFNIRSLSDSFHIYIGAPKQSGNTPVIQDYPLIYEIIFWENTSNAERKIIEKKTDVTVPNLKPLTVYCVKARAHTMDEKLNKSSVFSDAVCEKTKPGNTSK

As to IFNα1 (from UniProt P0DY56), in the data set with IFNAR2 (Homo sapiens) [1], the Kd was 200 nM. Take IFNβ (from UniProt P01574): the Kd is 50 nM in the data set with IFNAR1 (Homo sapiens) and 0.2 nM in the data set with IFNAR2 (Homo sapiens) [2]. Regarding IL-2 (from UniProt P60568), the results for the Kd in the data set with IL-2Rβ:γc (Homo sapiens) and with IL-2Rβ (Homo sapiens) [3] were 1 nM and 100 nM, respectively. Regarding “IL-2:IL-2Rα complex (from UniProt P60568)”, the Kd with IL-2Rβ (Homo sapiens) [4] is 0.03 nM.

For IL-4 (from UniProt P05112), in the data set with IL-4Rα (Homo sapiens), the Kd was less than 1 nM.

Turning to IL-15 (from UniProt P40933), in the data set with IL-2Rβ (Homo sapiens) [5], the Kd is 438 nM. With “IL-15:IL-15Rα complex (from UniProt P40933)”, the Kd with IL-2Rβ (Homo sapiens) [6] was 3 nM.
